According to patent publication US20160355836:
Positions count from the first letter of the chain named.

How the values were obtained:
[1] = tested on: T1, GST-PT8-CTS517 (not phosphorylated)
T1 sequence: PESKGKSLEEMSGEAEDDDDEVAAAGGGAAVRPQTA

[2] = tested on: T2, GST-PT8-CTS517A
T2 sequence: T1 sequence with S12A

[3] = tested on: T3, GST-PT8-CTS512A
T3 sequence: T1 sequence with S7A

GST-CK2α3
in vitro phosphorylation assay ([γ-32P]ATP) [1]: the PT8-CT was phosphorylated by the catalytic subunit CK2 α3 | in vitro phosphorylation assay ([γ-32P]ATP) [2]: Mutation of S517, but not S512, prevented phosphorylation of PT8-CT | in vitro phosphorylation assay ([γ-32P]ATP) [3]: Mutation of S517, but not S512, prevented phosphorylation of PT8-CT
